Test system: A/Udorn/72 (H3N2) influenza virus
Format: cell-based, A/Udorn/72 (H3N2) influenza virus; human HEK293T cells

B1: WT MORC3 (protein, UniProt Q14149 1-939, looked up)
MORC family CW-type zinc …: MAAQPPRGIRLSALCPKFLHTNSTSHTWPFSAVAELIDNAYDPDVNAKQIWIDKTVINDHICLTFTDNGNGMTSDKLHKMLSFGFSDKVTMNGHVPVGLYGNGFKSGSMRLGKDAIVFTKNGESMSVGLLSQTYLEVIKAEHVVVPIVAFNKHRQMINLAESKASLAAILEHSLFSTEQKLLAELDAIIGKKGTRIIIWNLRSYKNATEFDFEKDKYDIRIPEDLDEITGKKGYKKQERMDQIAPESDYSLRAYCSILYLKPRMQIILRGQKVKTQLVSKSLAYIERDVYRPKFLSKTVRITFGFNCRNKDHYGIMMYHRNRLIKAYEKVGCQLRANNMGVGVVGIIECNFLKPTHNKQDFDYTNEYRLTITALGEKLNDYWNEMKVKKNTEYPLNLPVEDIQKRPDQTWVQCDACLKWRKLPDGMDQLPEKWYCSNNPDPQFRNCEVPEEPEDEDLVHPTYEKTYKKTNKEKFRIRQPEMIPRINAELLFRPTALSTPSFSSPKESVPRRHLSEGTNSYATRLLNNHQVPPQSEPESNSLKRRLSTRSSILNAKNRRLSSQFENSVYKGDDDDEDVIILEENSTPKPAVDHDIDMKSEQSHVEQGGVQVEFVGDSEPCGQTGSTSTSSSRCDQGNTAATQTEVPSLVVKKEETVEDEIDVRNDAVILPSCVEAEAKIHETQETTDKSADDAGCQLQELRNQLLLVTEEKENYKRQCHMFTDQIKVLQQRILEMNDKYVKKETCHQSTETDAVFLLESINGKSESPDHMVSQYQQALEEIERLKKQCSALQHVKAECSQCSNNESKSEMDEMAVQLDDVFRQLDKCSIERDQYKSEVELLEMEKSQIRSQCEELKTEVEQLKSTNQQTATDVSTSSNIEESVNHMDGESLKLRSLRVNVGQLLAMIVPDLDLQQVNYDVDVVDEILGQVVEQMSEISST
viral infectivity: slight increase in viral infectivity

Reference: PMC11514443 (Structure (London, England : 1993), 2019)
